This series addresses T1, SBDMmo (sulfur binding domain of Type IV REase MmoMcrA) (Morganella morganii).
T1 chain: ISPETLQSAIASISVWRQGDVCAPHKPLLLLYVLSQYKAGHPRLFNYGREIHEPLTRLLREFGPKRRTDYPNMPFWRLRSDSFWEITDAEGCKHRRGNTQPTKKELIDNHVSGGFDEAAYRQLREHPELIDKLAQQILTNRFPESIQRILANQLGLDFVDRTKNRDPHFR
Briefly: EMSA. On the technique in general: Mobility shift assays separate free from complexed probe on a gel.

B1: PT-dsDNA GGCC-10F/10R (dsDNA)
DNA 1: GTCGGCCCCA
DNA 2: TGGGGCCGAC
modifications: phosphorothioate between G4 and G5 of strand 1 (hemi-PT; stereochemistry not stated)
Consider B1, for which the binding result was “binds”.

In the case of GTCGGCCCCA (ssDNA, phosphorothioate between G4 and G5 (stereochemistry not stated)) [PT-ssDNA GGCC-10F], the binding result is reported as “no binding”.

The values above are taken from paper PMC9982451.
